Test results as given in patent publication US11242370B2, “Neuregulin-4 compounds and methods of use” (Eli Lilly and Company, priority 2019, dated 2022).
Where a chain is given by its changes, count along the chain named. Numbers in names are those of the source. One block for each molecule: values may come before it.

Target: T1, human HER2 and HER4 (Homo sapiens, UniProt Q15303)
T1 construct: expressed in transfected cells
Assay: Screening by human HER2-HER4 mediated ERK 1/2 phosphorylation in CHO-hHER2-hHER4 (clone 1H6) cells
Format: cell-based
Conditions: Fc variants as 293F supernatants
Procedure: A cell based assay utilizing CHO-K1 cells overexpressing human or rat HER receptors is used to determine activity of NRG4 compounds. CHO-K1 cells (ATCC) are grown in DMEM-F12 3:1 with 5% FBS with 20 mM HEPES, 40 μg/mL L-Proline, lx antibiotics and were split 1:5 every 2-3 days with TripLE Express (Gibco). Cells are transfected with plasmid DNA encoding HER receptors in pairs (hHER2-3, hHER2-4, rHER2-3 and rHER2-4) with Fugene 6 (Promega) according to the manufacturer's instructions. […] Transfected cells are selected with Puromycin (12 ug/ml) and Hygromycin (1 mg/ml) for 3-4 weeks and clonal lines are obtained by limited dilution cloning into 96 well plates. Clonal lines are selected by appropriate gene expression of HER2, HER3 or HER4 by Taqman method. Lines with appropriate receptor expression are confirmed by NRG1 induced phospho-ERK 1/2 responses. Clones are grown up, harvested, aliquoted into cryovials and then frozen under liquid nitrogen for long-term storage.
A phospho-ERK1/2 activity assay is used to determine potencies of NRG4 compounds. The potency of Examples 1-8 and 10 as compared to WT human NRG1 and/or human NRG4 are analyzed in studies measuring stimulation of human HER2-HER4 mediated ERK 1/2 phosphorylation. This assay comprises a CHO-K1 stable line expressing human HER2 and HER4. CHO-hHER2-hHER4 (clone 1H6) cells are routinely cultured in DMEM: F12(3:1), 5% FBS, 40 μg/mL L-Proline, 10 μg/mL puromycin and 1 mg/mL hygromycin at 37° C., 5% CO2. Cells are washed twice with 1×PBS, dissociated with 0.05% trypsin/[…] EDTA and collected by centrifugation at 300×g for 10 m. Cells are re-suspended in maintenance media. 20,000 cells/well, in 30 μL, are seeded into 384 well Poly-D-Lysine cell culture plates (Greiner, Cat No. 781946). Plates are covered with a manufacturer's lid and moved to a 37° C. tissue culture incubator at 5% CO^2, 80%+ humidity and allowed to adhere. After 24 h, media are removed from the plates and replaced with 30 μL serum-free starvation media (Low glucose DMEM with 0.1% BSA) using a Biomek FX liquid handler. Plates are returned to the incubator for 24 h.
hFcNRG4 variants, transiently expressed as 293F supernatants, are prepared in starvation media in a clear 384W plate (Greiner, cat no. 781185) as a 4pt 1:8 serial dilution (dose range averaged between 250 pM to 140000 pM). Media are removed from the cell culture plates and the 30 uL/well prepared variants are stamped into the plates using a Biomek FX liquid handler. Plates are sealed with a foil seal and stimulated for 15 minutes at room temperature on an orbital shaker. Cells are then washed once with 50 uL cold PBS. 30 uL lysis buffer is added to the cells and oscillated for 10 m at RT on an orbital shaker.
Detection of phosphorylation of ERR 1/2 is performed with either an AlphaScreen SureFire phospho-ERK1/2 kit (T202/Y204) (Perkin Elmer, catalog no. TGRES) or an AlphaLISA® SureFire® Ultra™ p ERK1/2 assay kit together with the AlphaScreen Protein. A IgG Detection Kit (Protein-A) (PerkinElmer, catalogue no. 6760617). After lysis of the CHO-K1 cells. 4 μL lysate is transferred to a 384W Alpha Proxiplate (Perkin Elmer, cat no, 6008280) with a 384W Biomek FX. 4 uL positive and negative lysates (Perkin Elmer, TGRES-L) are added to available wells as controls. 5 uL/well acceptor mix (containing anti-phoso-Thr202/Tyr204 antibodies and Protein A conjugated acceptor beads) is added to the plate with a Forumlatrix Mantis. The plate is sealed, spun down for 1 min at 300×g and incubated for 2 hr at room temperature on an orbital shaker. 2 μL/well donor mix (containing strepavidin coated donor beads and biotinylated antibodies to a distal ERK1/2 epitope) is dispensed by Mantis. The plate is sealed, spun down for 1 min at 300×g and incubated for 2 hr at room temperature on an orbital shaker before reading on the Perkin Elmer Envision 2103 Multilabel Reader (HIS Alpha mode, excitation time: 40 ms, total measurement time: 130 ms). […]

- EC50 (Table 5, Examples average of two replicates ± standard deviation): 2.53 nM
- EC50 (Table 6): 1.3 nM
Molecule: WT NRG4: wild type human NRG4 (SEQ ID NO:1); parental hFcNRG4 in screening (Tables 4-6), native peptide from Reprokine in Tables 7-9 (DHEEPCGPSHKSFCLNGGLCYVIPTIPSPFCRCVENYTGARCEEVFL; listed as Homo sapiens)

- EC50 (Table 6): 0.319 nM
Molecule: WT NRG1: wild type human NRG1; native peptide purchased from Reprokine in Tables 7-9; comparator in the screening assays of Tables 4 and 6

B1: Example 10: NRG4 D1G/V22Q/E44K, (GGGGS)3 linker, SEQ ID NO: 19, fused to IgG Fc dimer SEQ ID NO: 6 and 7 (protein)
chain 1: GGGGSGGGGSGGGGSGHEEPCGPSHKSFCLNGGLCYQIPTIPSPFCRCVENYTGARCEKVFL
chain 2: ECPPCPAPPVAGPSVFLFPPKPKDTLMISRTPEVTCVVVDVSHEDPEVQFNWYVDGVEVHNAKTKPREEQFNSTFRVVSVLTVVHQDWLNGKEYKCKVSNKGLPAPIEKTISKTKGQPREPQVYTLPPSREEMTKNQVSLWCLVKGFYPSDIAVEWESNGQPENNYKTTPPVLDSDGSFFLYSKLTVDKSRWQQGNVFSCSVMHEALHNHYTQKSLSLSPG
chain 3: B1 chain 2 with W141S, L143A, Y182V
- EC50 (Table 6): 0.245 nM
